From US20210032331A1 (PHANES THERAPEUTICS, published 2021)

Target: T1, human LAG-3(ECD)-mFc (human, UniProt P18627 23-450)
T1 construct: also called hLAG3-mFc; human LAG-3 extracellular domain (ECD) fused to mouse Fc; not shown: mouse Fc
T1 sequence: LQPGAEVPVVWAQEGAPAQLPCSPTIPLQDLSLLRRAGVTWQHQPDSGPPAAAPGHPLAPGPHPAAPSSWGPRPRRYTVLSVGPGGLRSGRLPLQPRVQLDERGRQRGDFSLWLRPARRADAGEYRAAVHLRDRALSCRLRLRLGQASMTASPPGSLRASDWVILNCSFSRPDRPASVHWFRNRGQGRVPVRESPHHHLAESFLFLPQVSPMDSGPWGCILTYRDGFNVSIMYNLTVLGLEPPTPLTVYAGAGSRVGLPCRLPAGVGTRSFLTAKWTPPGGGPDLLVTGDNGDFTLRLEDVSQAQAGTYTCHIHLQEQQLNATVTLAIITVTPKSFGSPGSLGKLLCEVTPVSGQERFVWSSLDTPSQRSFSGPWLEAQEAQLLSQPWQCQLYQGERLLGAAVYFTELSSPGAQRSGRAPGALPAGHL
Assay: ELISA: chimeric IgG1 B12 with hLAG3-mFc in solution, captured on anti-human IgG, anti-mouse IgG-HRP
Experimental: FIGS. 5A-5D show the effect of competition peptides on LAG-3 binding to anti-LAG-3 mAbs. […] B5/IgG4 was preincubated with a competition peptide for 30 minutes. Then human LAG-3 extracellular domain (ECD) fused to mouse Fc (hLAG3-mFc) was added (the final peptide concentration was 600-fold that of hLAG3-mFc) and the mixture was incubated for 60 minutes before being added to an ELISA plate coated with anti-human IgG. The incubation was carried out at 4° C. overnight. After washing, the hLAG3-mFc bound to the immobilized B5/IgG4 on the ELISA plate was detected by adding anti-mouse IgG conjugated to horseradish peroxidase (HRP) and incubating for 60 minutes. Then, after washing, the ELISA was developed using One-step Detection Solution and measured as the absorbance at 450 nm.
Anti-human IgG in carbonate coating buffer was coated on an ELISA plate at 4° C. (50 μL/well at 1 μg/mL) overnight. […] The plate was washed and the binding of hLAG3-mFc to the immobilized anti-LAG-3 mAb was detected by adding anti-mouse IgG conjugated to horseradish peroxidase ([…]) (ThermoFisher Scientific, Cat#: A16084; Waltham, Mass.) and incubating for 60 minutes.

B1: B12 (human IgG1 heavy chain and kappa light chain chimeric) (antibody, V domains shown)
VH: EVKLLESGGSLVQPGGSLKLSCAASGFDFSRYWMSWVRQAPGKGLEWIGEINPDSSTINYTPSLRDEFIISRDNAKNTLFLQMSKVISEDTALYYCARITSGYYFDYWGQGTTLTVSS
VL: DVVMTQTPLSLPVSLGDQASISCRSSQTIVYSNGNTYLYWYLQKPGQSPKLLIYRVSNRFPGVPDRFSGSGSGTDFTLKISGVEAEDMGVYYCFQGTHVPFTFGSGTKLEMK
notes: Chimeric: mouse VH and VL with human IgG1 heavy chain and kappa light chain constant regions
binding result: binds
